# Laboratory results taken from patent US12599570B2, “Biodegradable extended release microsphere-hydrogel ocular drug delivery system and method” (priority 2015, dated 2026).
# Several values for one entry are separate records, joined by “and”; a condition that tells them apart may be missing. Equal entries are not always repeated.
# B1: ovalbumin (protein, UniProt P01012 2-386, looked up)
# Ovalbumin: GSIGAASMEFCFDVFKELKVHHANENIFYCPIAIMSALAMVYLGAKDSTRTQINKVVRFDKLPGFGDSIEAQCGTSVNVHSSLRDILNQITKPNDVYSFSLASRLYAEERYPILPEYLQCVKELYRGGLEPINFQTAADQARELINSWVESQTNGIIRNVLQPSSVDSQTAMVLVNAIVFKGLWEKAFKDEDTQAMPFRVTEQESKPVQMMYQIGLFRVASMASEKMKILELPFASGTMSMLVLLPDEVSGLEQLESIINFEKLTEWTSSNVMEERKIKVYLPRMKMEEKYNLTSVLMAMGITDVFSSSANLSGISSAESLKISQAVHAAHAEINEAGREVVGSAEAGVDAASVSEEFRADHPFLFCIKHIATNAVLFFGRCVSP
# notes: model protein (45 kDa) used in initial development of the DDS
# How the values were obtained:
# [1] = Release of vancomycin from hydrogel; format: physicochemical; details: VAN encapsulated in hydrogel only
# From the text: A third example is a DDS where only hydrogel is used to release vancomycin (VAN, antibiotics, 1450 Da). VAN was encapsulated in the hydrogel as a short-term release DDS (e.g., for use as a prophylactic treatment before ocular surgery).
# [2] = Bioactivity of vancomycin released from hydrogel; details: throughout release from hydrogel
# [3] = Animal modeling of vancomycin hydrogel DDS (subconjunctival injection); format: in vivo
# [4] = In vitro release of anti-VEGF from microspheres and microsphere-hydrogel DDS (PBS, 37 C); format: physicochemical; details: for Initial Burst Percent: drug released within first 24 hours; for extension of release by hydrogel: microspheres in hydrogel versus alone; for reduction of initial burst by hydrogel: microspheres in hydrogel versus microspheres alone; for steady release rate: Days 7-196; for duration of release: microspheres suspended in hydrogel
# Procedure: (§1) Labeled proteins were lyophilized, weighed, and dissolved in 1× phosphate-buffered saline (PBS, pH 7.4) to create stock solutions of 10 mg/mL for each protein, which were stored at −80° C.
# Release of anti-VEGF agents was determined using a separation method also described in Osswald C. R. et al. Briefly, 15 mg of microspheres and 1 mL of the DDS (15 mg microspheres in 1 mL hydrogel) were suspended in 1.5 mL of 1×PBS to ensure detectable levels of anti-VEGF concentration throughout release. Release profiles were conducted at 37° C. under mild agitation and at predetermined intervals, 1 mL of supernatant was removed after a brief centrifugation and replaced with an equal volume of fresh buffer. Supernatants were read using a gamma counter (Packard). Cumulative release was calculated as a percent of encapsulated drug and was considered complete when the microspheres had completely degraded based on visual inspection. The IB was defined as drug released within the first 24 hours.
# [5] = Encapsulation efficiency of iodine-125 labelled anti-VEGF by gamma counter; format: physicochemical
# Procedure: as §1
# For each anti-VEGF agent, encapsulation efficiency (EE) was determined from the radioactivity measured using a gamma counter (Cobra-II Auto-Gamma, Packard Instrument Co., Meriden, CT) before and after microsphere preparation. EE was defined as the percent-drug within the microspheres relative to the theoretical loading amount.
# retina [6] = system: retina; set-up: species or system Long-Evans rats; details: rat, in vivo
# Procedure: (§2) All animal procedures were in accordance with protocols approved by the Institutional Animal Care and Use Committee at the Illinois Institute of Technology, and with the principles embodied in the statement on the use of animals in ophthalmic and vision research adopted by the Association for Research in Vision and Ophthalmology. Long-Evans male rats (1-3 months, 300-350 g) were purchased from Harlan Laboratories (Indianapolis, IN, USA). Animals were anesthetized using 80 mg/kg of ketamine hydrochloride (Fort Dodge Animal Health, Fort Dodge, Iowa, USA) and 10 mg/kg xylazine (AnaSed® Injection, Akorn, Inc., Decatur, IL, USA) via intraperitoneal (IP) injection. Proparacaine drops (Bausch and Lomb, Rochester, NY, USA) were used to anesthetize the corneas throughout the procedure and pupils were dilated using phenylephrine (Bausch and Lomb) and atropine drops (Bausch and Lomb). Heart rate and blood oxygen saturation were monitored with a PulseOximeter (8500AV; Nonin Medical Inc., Plymouth, MN, USA). Animals were placed on a custom-built heated stage and monitored to maintain a core body temperature of 37° C.
# Animals were separated into six groups to determine the ability of the DDS of this invention to treat CNV. For analysis purposes, lesions were considered independent within each treatment group and each group contained two rats for a total of four eyes and up to 24 lesions per treatment group. […] All IVT injections were 5 μL and performed immediately after CNV induction.
# The corneal electroretinogram (ERG) is a non-invasive measurement that represents the overall electrical activity of the retina in response to a stimulus flash. It is routinely used to assess retinal cellular activity and in toxicology studies. Each component of the ERG can be used to assess different retinal cell types and any alterations in the function of the retina due to the DDS would appear as changes in amplitude or sensitivity of various ERG components. Under scotopic conditions, the ERG has two important components: the a-wave and b-wave. The rising edge of the negative a-wave is generated by the photoreceptors in the outer retina; the positive b-wave is generated primarily by the bipolar cells and/or Müller cells. Another component of the ERG is the c-wave, which originates in the RPE and can be used to assess the functional integrity of the photoreceptors, the RPE cells, and the interactions between them; however, for the purposes of this research, the c-wave was not recorded or analyzed.
# Under dim red light prior to and at each time point after CNV induction and DDS injection, ERG experiments were performed under scotopic conditions, with animals dark-adapted overnight prior to the experiment. Electroretinograms, in response to the full-field Ganzfeld stimulation, were recorded by a gold wire loop placed on the cornea. The reference and ground electrodes were 30 G platinum subdermal needle electrodes ([…]™ F-E2, Grass Products, Natus Neurology, Warwick, RI, USA) inserted into the cheek and nape of the neck, respectively. A-wave and b-wave intensity responses were recorded by presenting single flashes of increasing intensity (5×10^−4 to 305.7 sc cd·s·m^−2) and allowing the eye to dark adapt for 1 min after each flash. The intensity-response values for the a-wave and b-wave were fit with the Naka-Rushton equation, to determine a half-saturation intensity of the responses and maximal response.
# The parameter values obtained from the Naka-Rushton analyses and IOP measurements were compared using the paired t-test verses control. […] Unless otherwise noted, significance represents p<0.05. All values are reported as sample mean±standard error of the mean.
# [7] = In vitro single and dual release of DEX nanoparticles and AFL microspheres from hydrogel DDS (Example 3); format: physicochemical; details: first 14 days
# Procedure: The DDS for single release consisted of 20 mg of DEX nanoparticles (DEX-np) suspended within a biodegradable N-isopropylacrylamide/poly(ethylene glycol)-co-(L-lactic acid) diacrylate/(NIPAAm/PEG-PLLA-DA) thermoresponsive hydrogel. The dual release consisted of 20 mg of DEX-np and 20 mg of AFL microspheres (AFL-ms) suspended within the hydrogel. DEX release in vitro, with and without AFL-ms, was quantified using NanoDrop™ OneC. Iodine-125 radiolabeled AFL was used to measure encapsulation efficiency into the hydrogel and in vitro release. The initial burst was calculated by quantifying total drug release in the first 24 hours.
# retina [8] = details: vitreal concentration 6.67-10 mg/mL, 24 hr or 7 days after treatment; cited from earlier work
# laser-induced CNV = assay: Laser-induced CNV rat model, lesion area from late-phase FA images (multi-Otsu thresholding); format: in vivo, Long-Evans rats; details: 5 μL IVT immediately after CNV induction, Weeks 1-12
# Procedure: as §2, with “Proparacaine drops (Bausch and Lomb, Rochester, NY, USA) were used to anesthetize the corneas throughout the procedure and pupils were dilated using phenylephrine (Bausch and Lomb) and atropine drops (Bausch and Lomb).” left out, “C. […]” for “C.”
# A confocal scanning laser ophthalmoscope (cSLO) system (Heidelberg Retina Angiograph (HRA), Heidelberg Engineering, Heidelberg, Germany) was used to image the retina. FA still images were captured at 1-2 min, 10 min and 20 min after IP injection of 0.5 mL of 20% fluorescein dye (Sigma Aldrich, St. Louis, MO, USA) and were used for quantification of CNV lesion areas. […]
# CNV lesion areas were quantified using late-phase FA images. […]
# bovine retina = details: directly after exposure to 0.1 mg/mL; cited from earlier work
# [9] = Microsphere diameter by light microscopy and ImageJ; format: physicochemical; details: drug-loaded microspheres, Alone
# From the text: To measure microsphere diameter, microspheres were fabricated as described above with non-radiolabeled drug. A sample was suspended in ddH2O and imaged with a microscope (×20 objective, Carl Zeiss, Germany).
# [10] = system: inflammation-induced angiogenesis in the cornea; details: systemic or topical application; cited from earlier work
# CNV = details: intravitreal, out to 28 days, doses above and below clinical dose; cited from earlier work
# mouse VEGF-A = details: cited from earlier work
# [11] = system: corneal neovascularization; details: cited from earlier work
# [12] = in vivo; cited from earlier work
# [13] = cited from earlier work
# Sequence of mouse VEGF-A (Q00731 205-317 limits assumed): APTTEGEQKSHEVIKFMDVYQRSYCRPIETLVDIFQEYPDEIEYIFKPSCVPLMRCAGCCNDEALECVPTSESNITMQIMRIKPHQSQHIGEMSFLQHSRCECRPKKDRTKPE
molecule,measurement,setting,value
"CN[C@H](CC(C)C)C(=O)N[C@H]1C(=O)N[C@@H](CC(N)=O)C(=O)N[C@H]2C(=O)N[C@H]3C(=O)N[C@H](C(=O)N[C@H](C(=O)O)c4cc(O)cc(O)c4-c4cc3ccc4O)[C@H](O)c3ccc(c(Cl)c3)Oc3cc2cc(c3O[C@@H]2O[C@H](CO)[C@@H](O)[C@H](O)[C@H]2O[C@H]2C[C@](C)(N)[C@H](O)[C@H](C)O2)Oc2ccc(cc2Cl)[C@H]1O [VAN, vancomycin]",duration of controlled release,[1],over 20 days
same,bioactivity,[2],bioactivity was maintained throughout the release
same,treatment efficacy,[3],showed treatment efficacy
aflibercept,"rate of release from the DDS, times less than that of ranibizumab",[4]; microsphere-hydrogel DDS,2.3 ×
same,Initial Burst Percent,[4]; microspheres Alone,83.3 ± 2.1%
same,extension of release by hydrogel,[4],27.2%
same,reduction of initial burst by hydrogel,[4],76%
same,steady release rate,[4]; microspheres in hydrogel,0.065 µg/day
same,Initial Burst Percent,[4]; microspheres in hydrogel,20.1 ± 0.8%
same,duration of release,[4],196 days and ~200 days
same,encapsulated drug remaining entrapped in hydrogel after complete degradation of microspheres,"[4]; non-degradable hydrogel, end of release",32.7±1.1%
same,Encapsulation Efficiency Percent,[5]; microspheres Alone,44.8 ± 2.0%
same,Encapsulation Efficiency Percent,[5]; microspheres in hydrogel,44.6 ± 1.4%
same,a-wave half-saturation intensity versus control,retina [6],No significant difference
same,half-maximal a- or b-wave response (half-saturation intensity),retina [6],No significant difference
same,"maximal a-wave response post-treatment, lower than control",retina [6],~40%
same,"maximal a-wave response, Control versus Week 1-Week 12",retina [6],significant difference
same,release rates in the presence of DEX-np,[7],increased release rates
same,ERG parameters,retina [8],did not alter any ERG parameters
same,CNV lesion area compared to non-treated animals,laser-induced CNV,significantly smaller CNV lesions compared to non-treated animals at Week 4 and Week 12
same,decrease in maximal scotopic b-wave response,bovine retina,43.1%
same,Diameter,[9],8.0 ± 0.3 μm
bevacizumab,inhibition of corneal angiogenesis,[10],significantly inhibited inflammation-induced angiogenesis
same,therapeutic effect on CNV,CNV,no therapeutic effect was observed
same,binding to mouse VEGF-A,mouse VEGF-A,binds to mouse VEGF-A
same,corneal angiogenesis,[11]; sub-conjunctival injection,can significantly inhibit corneal angiogenesis
same,corneal neovascularization,[11]; topical,limited corneal neovascularization
ranibizumab,therapeutic effect on CNV,CNV,no therapeutic effect was observed
same,Initial Burst Percent,[4]; microspheres Alone,50.3 ± 2.1%
same,extension of release by hydrogel,[4],27.2%
same,reduction of initial burst by hydrogel,[4],58%
same,steady release rate,[4]; microspheres in hydrogel,0.153 µg/day
same,Initial Burst Percent,[4]; microspheres in hydrogel,21.0 ± 2.0%
same,duration of release,[4],196 days and ~200 days
same,Encapsulation Efficiency Percent,[5]; microspheres Alone,91.3 ± 2.5%
same,"a-wave parameters (maximal response, half-saturation intensity) versus control",retina [6],no significant differences
same,b-wave parameters versus control,retina [6],no significant differences
same,CNV lesion area compared to non-treated animals,laser-induced CNV,only had a significant decrease in lesion area at Week 12
same,half-life t½,[12],220 h
same,Diameter,[9],7.5 ± 0.4 μm
B1,duration of controlled and extended release,[13]; microsphere-hydrogel DDS,approximately 200 days
same,extension of release compared to microspheres alone,[13]; microspheres within hydrogel,~30%
same,residual entrapment in hydrogel,[13]; prior study,8.01±0.76%
